Tests used:
[1] = test system: human liver cancer Huh-7; experiment: subcutaneous transplanted tumors of human liver cancer Huh-7 in nude mice; format: in vivo; conditions: for % T/C D 17 / Mean tumor volume D 17 SEM / Tumor inhibition rate % D 17 / Mean tumor volume D 0 SEM: D 0, 3, 7, 10, 14; for Mean tumor volume D 0 SEM: baseline at grouping
Procedure: (§1) The indicators of tumor inhibition experiments in mice were to investigate the effect of drugs on tumor growth, and the specific indicators were T/C % or the rate of tumor growth inhibition TGI (%).
(§2) The diameter of the tumor was measured with a vernier caliper twice a week, and the formula for calculating the tumor volume (V) was: V=½xaxb^2, wherein a and b represented the length and width, respectively.
(§3) T/C(%)=(T−T0)/(C−C0)×100,
(§4) If a tumor was smaller than the initial volume, i.e., T<T0 or C<C0, it was defined as partial regression (PR) of the tumor; if a tumor disappeared completely, it was defined as complete regression (CR) of the tumor.
(§5) At the end of the experiment (e.g., D21), reaching the experimental endpoint, or the tumor volume reached 1,500 mm^3, the animals were sacrificed after CO2 anesthesia, and then the tumors were dissected and photographed.
Nude mice were subcutaneously inoculated with 6×10^6 human liver cancer Huh-7 cells. After the tumor grew to 100-150 mm^3, the animals were grouped according to tumor volume (D0). Mice were administered subcutaneously (SC) or intravenously (IV), twice a week (BIW); the administration volume was 10 mL/kg; the solvent group was administered with the same volume of “solvent” (normal saline); specific dosage and administration regimen were shown in Table 2. The tumor volumes were measured twice a week, the mice were weighed, and the data were recorded.
(§6) Two-tailed Student's t-test was used to compare tumor volumes between the two groups, and P<0.05 was defined as a statistically significant difference.

[2] = test system: human gastric cancer NCI-N87; experiment: subcutaneous transplanted tumors of human gastric cancer NCI-N87 in nude mice; format: in vivo; conditions: D 0, 3, 7, 10, 14, 17; for Mean tumor volume D 0 SEM: baseline at grouping
Procedure: as §1, §2, §3, §4, §5
Nude mice were subcutaneously (SC) inoculated with 6×10^6 human gastric cancer NCI-N87 cells. After the tumor grew to 100-150 mm^3, the animals were grouped according to tumor volume (D0). Mice were administered subcutaneously (SC) or intravenously (IV), twice a week (BIW); the administration volume was 10 mL/kg; the solvent group was administered with the same volume of “solvent” (normal saline); specific dosage and administration regimen were shown in Table 1. The tumor volumes were measured twice a week, the mice were weighed, and the data were recorded.
as §6

[3] = half-life in rats; format: in vivo
[4] = test system: Huh-7; experiment: SRB method, proliferation of tumor cells in vitro, Huh-7; format: cell-based, human; conditions: Huh-7 (Liver cancer), 120 hours of drug action
Procedure: (§7) Sulfonyl rhodamine B protein staining method (SRB method) was used to evaluate the effects of using PEG-interferon alone or in combination with other drugs on the proliferation of tumor cells in vitro.
(§8) A certain number of cells in logarithmic growth phase were seeded in 96-well culture plates. After 24 hours of adherent growth, different concentrations (final concentrations of 1, 3, 10, 30, 100, 300, 1,000, 3,000, 10,000 nM) of drugs were added. After 120 hours of drug action, cells were fixed with trichloroacetic acid. Then stained with SRB solution; finally, Tris solution was added to dissolve SRB, and OD value was measured at a wavelength of 510 nm by a microplate reader.

[5] = test system: HepG2; experiment: SRB method, proliferation of tumor cells in vitro, HepG2; format: cell-based; conditions: HepG2 (Liver cancer), 120 hours of drug action
Procedure: as §7, §8

[6] = test system: MCF-7; experiment: SRB method, proliferation of tumor cells in vitro, MCF-7; format: cell-based; conditions: MCF-7 (Breast cancer), 120 hours of drug action
Procedure: as §7, §8

[7] = test system: A549; experiment: SRB method, proliferation of tumor cells in vitro, A549; format: cell-based; conditions: A549 (Lung cancer), 120 hours of drug action
Procedure: as §7, §8

[8] = half-life in cynomolgus monkeys; format: in vivo
[9] = test system: HCC1806; experiment: SRB method, proliferation of tumor cells in vitro, HCC1806; format: cell-based; conditions: HCC1806 (Breast cancer), 120 hours of drug action
Procedure: as §7, §8

[10] = test system: BT474; experiment: SRB method, proliferation of tumor cells in vitro, BT474; format: cell-based, human; conditions: BT474 (Breast cancer), 120 hours of drug action
Procedure: as §7, §8
Breast cancer cells BT474 were used, and the corresponding inhibition rate (%) was calculated.

[11] = test system: Hep3B; experiment: SRB method, proliferation of tumor cells in vitro, Hep3B; format: cell-based; conditions: Hep3B (Liver cancer), 120 hours of drug action
Procedure: as §7, §8

[12] = test system: AGS; experiment: SRB method, proliferation of tumor cells in vitro, AGS; format: cell-based; conditions: AGS (Gastric cancer), 120 hours of drug action
Procedure: as §7, §8

[13] = test system: human breast cancer BT-474; experiment: subcutaneous transplanted tumors of human breast cancer BT-474 in nude mice; format: in vivo; conditions: for % T/C D 20 / Mean tumor volume D 20 SEM / Tumor inhibition rate % D 20 / Mean tumor volume D 0 SEM: D 0, 3, 7, 10, 14, 17; for Mean tumor volume D 0 SEM: baseline at grouping
Procedure: as §1, §2, §3, §4, §5
Nude mice were subcutaneously inoculated with 1×10^7 human breast cancer BT-474 cells. After the tumor grew to 100-150 mm^3, the animals were grouped according to tumor volume (D0). Mice were administered subcutaneously (SC) or intravenously (IV), twice a week (BIW); the administration volume was 10 mL/kg; the solvent group was administered with the same volume of “solvent” (normal saline); specific dosage and administration regimen were shown in Table 3. The tumor volumes were measured twice a week, the mice were weighed, and the data were recorded.
as §6

[14] = test system: HGC27; experiment: SRB method, proliferation of tumor cells in vitro, HGC27; format: cell-based; conditions: HGC27 (Gastric cancer), 120 hours of drug action
Procedure: as §7, §8

[15] = test system: NCI-H292; experiment: SRB method, proliferation of tumor cells in vitro, NCI-H292; format: cell-based; conditions: NCI-H292 (Lung cancer), 120 hours of drug action
Procedure: as §7, §8

[16] = test system: N87; experiment: SRB method, proliferation of tumor cells in vitro, N87; format: cell-based, human; conditions: N87 (Gastric cancer), 120 hours of drug action
Procedure: as §7, §8

[17] = test system: hairy cell leukemia; conditions: hairy cell leukemia patients; cited from earlier work
[18] = specific activity in vitro
[19] = test system: metastatic renal cancer and multiple myeloma; conditions: high-dose (500 μg/day) injection, patients; cited from earlier work
[20] = Avastin 10 mg/kg IV (first dose doubled)
[21] = PEGylated (PEG) interferon 0.1 mg/kg SC
[22] = PEGylated (PEG) interferon 1 mg/kg SC
[23] = PEGylated (PEG) interferon 10 mg/kg SC
[24] = PEGylated (PEG) interferon 10 mg/kg SC, 2 times a week, 6 times in total, D20

In the case of “Avastin: Bevacizumab injection, commercially available monoclonal antibody purchased from Roche Pharmaceuticals [reference compound]”, the “% T/C D 17” value [1, 20] is reported as 60%, the “Mean tumor volume D 17 SEM” value [1, 20] is reported as 1791.6 ± 105.7 mm^3 and the “Tumor inhibition rate % D 17” value [1, 20] is reported as 40%. The “Mean tumor volume D 0 SEM” value [1, 20] was 122.7 ± 1.8 mm^3, the “% T/C D 21” value [2, 20] was 51% and the “Mean tumor volume D 21 SEM” value [2, 20] was 561.1 ± 53.4 mm^3. The “Tumor inhibition rate % D 21” value [2, 20] was 49% and the “Mean tumor volume D 0 SEM” value [2, 20] was 115.7 ± 2.7 mm^3.

B1: PEGylated (PEG) interferon: recombinant human interferon α1b modified with a single PEG of about 20,000 Daltons; lyophilized powder injection, Shanghai Institute of Biological Products (protein, UniProt P01562 24-189, looked up)
Interferon alpha-1/13: CDLPETHSLDNRRTLMLLAQMSRISPSSCLMDRHDFGFPQEEFDGNQFQKAPAISVLHELIQQIFNLFTTKDSSAAWDEDLLDKFCTELYQQLNDLEACVMQEERVGETPLMNADSILAVKKYFRRITLYLTEKKYSPCAWEVVRAEIMRSLSLSTNLQERLRRKE
modifications: single 20 kDa PEG
notes: recombinant human interferon α1b modified with a single PEG of about 20,000 Daltons; lyophilized powder injection, Shanghai Institute of Biological Products
In the case of B1, the half-life [3] is reported as 13.98 h, the “Inhibition rate (%)@100 μg/mL” value [4] is reported as 29.3% and the “Inhibition rate (%)@100 μg/mL” value [5] is reported as 20.2%. For the same molecule, the “Inhibition rate (%)@100 μg/mL” value [6] was 24.2%, the “Inhibition rate (%)@100 μg/mL” value [7] was 33.7% and the half-life [8] was 22.03 ± 3.32 h. The “Inhibition rate (%)@100 μg/mL” value [9] was 32.6%, the “Inhibition rate (%)@100 μg/mL” value [10] was 19.6% and the “Inhibition rate (%)@100 μg/mL” value [11] was 58.4%. For the same molecule, the “Inhibition rate (%)@100 μg/mL” value [12] was 44.0%, the “% T/C D 17” value [1, 21] was 110% and the “Mean tumor volume D 17 SEM” value [1, 21] was 3188.0 ± 282.5 mm^3. The “Tumor inhibition rate % D 17” value [1, 21] was −10%, the “Mean tumor volume D 0 SEM” value [1, 21] was 117.7 ± 2.0 mm^3 and the “% T/C D 17” value [1, 22] was 107%. For the same molecule, the “Mean tumor volume D 17 SEM” value [1, 22] was 3110.6 ± 438.0 mm^3, the “Tumor inhibition rate % D 17” value [1, 22] was −7% and the “Mean tumor volume D 0 SEM” value [1, 22] was 119.8 ± 2.6 mm^3. For the same molecule, the “% T/C D 17” value [1, 23] was 91%, the “Mean tumor volume D 17 SEM” value [1, 23] was 2681.9 ± 435.7 mm^3 and the “Tumor inhibition rate % D 17” value [1, 23] was 9%. The “Mean tumor volume D 0 SEM” value [1, 23] was 123.8 ± 1.9 mm^3, the “inhibitory effect on the growth of subcutaneous transplanted tumors” value ([1]; PEGylated (PEG) interferon 0.1, 1, 10 mg/kg, SC, 2 times a week, 5 times in total) was “no significant inhibitory effect” and the “% T/C D 20” value [13, 21] was 34%. The “Mean tumor volume D 20 SEM” value [13, 21] was 422.2 ± 97.0 mm^3, the “Tumor inhibition rate % D 20” value [13, 21] was 66% and the “Mean tumor volume D 0 SEM” value [13, 21] was 91.2 ± 1.3 mm^3. The “tumors regressed partially (PR)” value ([13]; PEGylated (PEG) interferon 1 mg/kg SC, 2 times a week, 6 times in total, D20) was 3/6, the “% T/C D 20” value [13, 22] was 2% and the “Mean tumor volume D 20 SEM” value [13, 22] was 115.7 ± 26.1 mm^3. The “Tumor inhibition rate % D 20” value [13, 22] was 98%, the “Mean tumor volume D 0 SEM” value [13, 22] was 94.1 ± 4.3 mm^3 and the “tumors regressed completely (CR)” value [13, 24] was 2/6. The “tumors regressed partially (PR)” value [13, 24] was 4/6, the “tumors regressed partially (PR)” value ([13]; PEGylated (PEG) interferon 10 mg/kg SC, 6 times in total, end of the experiment (D60)) was 4/6 and the “% T/C D 20” value [13, 23] was −56%. The “Mean tumor volume D 20 SEM” value [13, 23] was 41.4 ± 15.7 mm^3, the “Tumor inhibition rate % D 20” value [13, 23] was 156% and the “Mean tumor volume D 0 SEM” value [13, 23] was 94.8 ± 4.2 mm^3. For the same molecule, the “Inhibition rate (%)@100 μg/mL” value [14] was 52.3%, the “% T/C D 21” value [2, 21] was 81% and the “Mean tumor volume D 21 SEM” value [2, 21] was 817.1 ± 84.9 mm^3. The “Tumor inhibition rate % D 21” value [2, 21] was 19%, the “Mean tumor volume D 0 SEM” value [2, 21] was 112.7 ± 3.9 mm^3 and the “% T/C D 21” value [2, 22] was 68%. For the same molecule, the “Mean tumor volume D 21 SEM” value [2, 22] was 712.4 ± 68.4 mm^3, the “Tumor inhibition rate % D 21” value [2, 22] was 32% and the “Mean tumor volume D 0 SEM” value [2, 22] was 117.4 ± 2.8 mm^3. For the same molecule, the “% T/C D 21” value [2, 23] was 45%, the “Mean tumor volume D 21 SEM” value [2, 23] was 506.1 ± 33.0 mm^3 and the “Tumor inhibition rate % D 21” value [2, 23] was 55%. For the same molecule, the “Mean tumor volume D 0 SEM” value [2, 23] was 112.3 ± 2.3 mm^3, the “Inhibition rate (%)@100 μg/mL” value [15] was 41.5% and the “Inhibition rate (%)@100 μg/mL” value [16] was 32.5%.

B2: ordinary interferon α1b: unmodified recombinant human interferon α1b, 166 amino acids, SEQ ID No.: 1 (protein, UniProt P01562 24-189, looked up)
Interferon alpha-1/13: CDLPETHSLDNRRTLMLLAQMSRISPSSCLMDRHDFGFPQEEFDGNQFQKAPAISVLHELIQQIFNLFTTKDSSAAWDEDLLDKFCTELYQQLNDLEACVMQEERVGETPLMNADSILAVKKYFRRITLYLTEKKYSPCAWEVVRAEIMRSLSLSTNLQERLRRKE
In the case of B2, the half-life [3] is given as 1.84 h, the adverse reaction [17] is given as “only a short-term low-grade fever” and the effective rate [17] is given as 63.64%. The remission rate [17] was 36.36%, the “specific activity relative to ordinary interferon α2a and 2b” value [18] was 10% and the half-life [8] was 3.27 ± 1.48 h. For the same molecule, the “adverse reactions compared with other ordinary interferons” value [19] was “milder” and the therapeutic effect [19] was “certain therapeutic effect”.
